Here are results for three proteins from patent US20180009908.

Data set [1] is described as follows: LCMS, IgG1 BsAb co-expression; HCA (MetMAb) homodimer species.
The target of data set [2] is matuzumab HC_7.8_A + matuzumab LC (IgG1). As to the kind of experiment: LCMS, IgG1 BsAb co-expression in HEK293F.
The target is the same in data set [3]. As to the kind of experiment: LCMS, IgG1 BsAb co-expression; HCA/HCB heterodimer carrying two LC1.
For data set [4] the target is unchanged. Briefly: LCMS, IgG1 BsAb co-expression; HCA/HCB heterodimer carrying two LC2.
In data set [5] the target is matuzumab HC_7.8.60_A + matuzumab LC (IgG1). Briefly: LCMS, IgG1 BsAb co-expression in HEK293F.
For data set [6] the target is unchanged. Briefly: LCMS, IgG1 BsAb co-expression; HCA/HCB heterodimer carrying two LC1.
Data set [7] shares this target. Briefly: LCMS, IgG1 BsAb co-expression; HCA/HCB heterodimer carrying two LC2.
Data set [8] can be described thus: LCMS, IgG1 BsAb co-expression; HCB (matuzumab) homodimer species.

B1: MetMAb HC_7.8_B + MetMAb LC (IgG1) (protein)
chain 1: EVQLVESGGGLVQPGGSLRLSCAASGYTFTSYWLHWVRKAPGKGLEWVGMIDPSNSDTRFNPEFKDRFTISADTSKNTAYLQMNSLRAEDTAVYYCATYRSYVTPLDYWGQGTLVTVSSASTKGPSVFPLAPSSKSTSGGTAALGCLVKDYFPEPVTVSWNSGALTSGVATGPAVLQSSGLYSLSSVVTVPSSSLGTQTYICNVNHKPSNTKVDKKVEPKSCDKTHTCPPCPAPELLGGPSVFLFPPKPKDTLMISRTPEVTCVVVDVSHEDPEVKFNWYVDGVEVHNAKTKPREEQYQSTYRVVSVLTVLHQDWLNGKEYKCKVSNKALPAPIEKTISKAKGQPREPQVYTLPPSREEMTKNQVSLVCLVKGFYPSDIAVEWESNGQPENNYKTTPPVLDSDGSFFLYSVLTVDKSRWQQGNVFSCSVMHEALHNHYTQKSLSLSPGK
chain 2: RIQMTQSPSSLSASVGDRVTITCKSSQSLLYTSSQKNYLAWYQDKPGKAPKLLIYWASTRESGVPSRFSGSGSGTDFTLTISSLQPEDFATYYCQQYYAYPWTFGQGTKVEIKGQPKAAPSVTLFPPSSEELQANKATLVCYISDFYPGAVTVAWKADSSPVKAGVETTTPSKQSNNKYAAWSYLSLTPEQWKSHRSYSCQVTHEGSTVEKTVAPTEC
B1 showed a % AA Homodimer (incorrect assembly) in data set [1] of 0%. Besides, the % AB (LC1/LC2) (correct IgG BsAb assembly) in data set [2] stood at 100%. Moreover, in data set [3], the % AB (2x LC1) (incorrect assembly) turned out to be 0%. The % AB (2x LC2) (incorrect assembly) in data set [4] was 0%.

B2: MetMAb HC_7.8.60_B + MetMAb LC (IgG1) (protein)
chain 1: EVQLVESGGGLVQPGGSLRLSCAASGYTFTSYWLHWVRKAPGKGLEWVGMIDPSNSDTRFNPEFKDRFTISADTSKNTAYLQMNSLRAEDTAVYYCATYRSYVTPLDYWGQGTLVTVSSASTKGPSVFPLAPSSKSTSGGTAALGCLVKDYFPEPVTVSWNSGALTSGVATGPAVLQSSGLYSLSSVVTVPSSSLGTQTYICNVNHKPSNTKVDKKVEPKSCDKTHTCPPCPAPELLGGPSVFLFPPKPKDTLMISRTPEVTCVVVDVSHEDPEVKFNWYVDGVEVHNAKTKPREEQYQSTYRVVSVLTVLHQDWLNGKEYKCKVSNKALPAPIEKTISKAKGQPRRPRVYTLPPSREEMTKNQVSLVCLVKGFYPSDIAVEWESNGQPENNYKTTPPVLDSDGSFFLYSVLTVDKSRWQQGNVFSCSVMHEALHNHYTQKSLSLSPGK
chain 2: RIQMTQSPSSLSASVGDRVTITCKSSQSLLYTSSQKNYLAWYQDKPGKAPKLLIYWASTRESGVPSRFSGSGSGTDFTLTISSLQPEDFATYYCQQYYAYPWTFGQGTKVEIKGQPKAAPSVTLFPPSSEELQANKATLVCYISDFYPGAVTVAWKADSSPVKAGVETTTPSKQSNNKYAAWSYLSLTPEQWKSHRSYSCQVTHEGSTVEKTVAPTEC
In the case of B2, the % AA Homodimer (incorrect assembly) in data set [1] turned out to be 0%. Also, the % AB (LC1/LC2) (correct IgG BsAb assembly) in data set [5] worked out at 90.8%. Further, in data set [6], the % AB (2x LC1) (incorrect assembly) turned out to be 9.2%. Further, the % AB (2x LC2) (incorrect assembly) in data set [7] was 0%.

B3: matuzumab HC_7.8.60_A + matuzumab LC (IgG1) (protein)
chain 1: QVQLVQSGAEVKKPGASVKVSCKASGYTFTSHWMHWVRYAPGQGLEWIGEFNPSNGRTNYNEKFKSKATMTVDTSTNTAYMELSSLRSEDTAVYYCASRDYDYDGRYFDYWGRGTLVTVSSASTKGPSVFPLAPCSKSTSGGTAALGCLVKDYFPEPVTVSWNSGALTSGVHTFPAVLQSSGLYSLSSVVTVPSSSLGTQTYICNVNHKPSNTKVDKKVEPDSGDKTHTCPPCPAPELLGGPSVFLFPPKPKDTLMISRTPEVTCVVVDVSHEDPEVKFNWYVDGVEVHNAKTKPREEQYNSTYRVVSVLTVLHQDWLNGKEYKCKVSNKALPAPIEKTISKAKGQPREPQVYTLPPSREEMTDNQVSLTCLVKGFYPSDIAVEWESNGQPENNYKTTPPVLMSDGSFFLASKLTVDKSRWQQGNVFSCSVMHEALHNHYTQKSLSLSPGK
chain 2: DIQMTQSPSSLSASVGDRVTITCSASSSVTYMYWYQRKPGDAPKLLIYDTSNLASGVPSRFSGSGSGTDYTFTISSLQPEDIATYYCQQWSSHIFTFGQGTKVEIKRTVAAPSVFIFPPSKEQLKSGTASVVCLLNNFYPREAKVQWKVDNALQSGNSQESVTEQDSKDSTYSLSSTLTLSKADYEKHKVYACEVTHQGLSSPVTKSFNRGEC
For B3, the % BB Homodimer (incorrect assembly) in data set [8] is 0%.
